Reference: patent US20030044809A1, “Nucleic acid binding of multi-zinc finger transcription factors” (published 2003)

T1: GST-SIP1CZF (mouse, UniProt Q9R0G7 Q9R0G7:957-1156)
T1 sequence: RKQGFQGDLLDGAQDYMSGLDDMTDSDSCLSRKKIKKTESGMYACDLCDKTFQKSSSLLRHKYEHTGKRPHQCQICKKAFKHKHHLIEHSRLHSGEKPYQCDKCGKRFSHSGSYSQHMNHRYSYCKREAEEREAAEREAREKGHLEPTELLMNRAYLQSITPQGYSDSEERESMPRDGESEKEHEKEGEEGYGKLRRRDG

T2: GST-SIP1NZF (mouse, UniProt Q9R0G7 Q9R0G7:90-383)
T2 sequence: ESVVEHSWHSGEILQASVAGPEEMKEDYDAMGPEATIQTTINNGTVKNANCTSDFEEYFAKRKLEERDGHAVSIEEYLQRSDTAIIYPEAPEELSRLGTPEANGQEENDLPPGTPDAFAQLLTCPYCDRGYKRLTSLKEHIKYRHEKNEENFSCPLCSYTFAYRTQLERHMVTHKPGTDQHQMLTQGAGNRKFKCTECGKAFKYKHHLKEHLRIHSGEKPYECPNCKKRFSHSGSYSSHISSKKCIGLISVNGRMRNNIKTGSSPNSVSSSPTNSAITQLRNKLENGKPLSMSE

B1: Xbra-E (dsDNA)
DNA 1: TAAAGTGACCAGGTGTCAGTTCT
DNA 2: AGAACTGACACCTGGTCACTTTA
B2: FLAG-tagged SIP1 (other, mouse, UniProt Q9R0G7 1-1214, looked up)
chain: MKQPIMADGPRCKRRKQANPRRKNVVNYDNVVDAGSETDEEDKLHIAEDDSLANPLDQDTSPASMPNHESSPHMSQGLLPREEEEEELRESVVEHSWHSGEILQASVAGPEEMKEDYDAMGPEATIQTTINNGTVKNANCTSDFEEYFAKRKLEERDGHAVSIEEYLQRSDTAIIYPEAPEELSRLGTPEANGQEENDLPPGTPDAFAQLLTCPYCDRGYKRLTSLKEHIKYRHEKNEENFSCPLCSYTFAYRTQLERHMVTHKPGTDQHQMLTQGAGNRKFKCTECGKAFKYKHHLKEHLRIHSGEKPYECPNCKKRFSHSGSYSSHISSKKCIGLISVNGRMRNNIKTGSSPNSVSSSPTNSAITQLRNKLENGKPLSMSEQTGLLKIKTEPLDFNDYKVLMATHGFSGSSPFMNGGLGATSPLGVHPSAQSPMQHLGVGMEAPLLGFPTMNSNLSEVQKVLQIVDNTVSRQKMDCKTEDISKLKGYHMKDPCSQPEEQGVTSPNIPPVGLPVVSHNGATKSIIDYTLEKVNEAKACLQSLTTDSRRQISNIKKEKLRTLIDLVTDDKMIENHSISTPFSCQFCKESFPGPIPLHQHERYLCKMNEEIKAVLQPHENIVPNKAGVFVDNKALLLSSVLSEKGLTSPINPYKDHMSVLKAYYAMNMEPNSDELLKISIAVGLPQEFVKEWFEQRKVYQYSNSRSPSLERTSKPLAPNSNPTTKDSLLPRSPVKPMDSITSPSIAELHNSVTSCDPPLRLTKSSHFTNIKAVDKLDHSRSNTPSPLNLSSTSSKNSHSSSYTPNSFSSEELQAEPLDLSLPKQMREPKGIIATKNKTKATSINLDHNSVSSSSENSDEPLNLTFIKKEFSNSNNLDNKSNNPVFGMNPFSAKPLYTPLPPQSAFPPATFMPPVQTSIPGLRPYPGLDQMSFLPHMAYTYPTGAATFADMQQRRKYQRKQGFQGDLLDGAQDYMSGLDDMTDSDSCLSRKKIKKTESGMYACDLCDKTFQKSSSLLRHKYEHTGKRPHQCQICKKAFKHKHHLIEHSRLHSGEKPYQCDKCGKRFSHSGSYSQHMNHRYSYCKREAEEREAAEREAREKGHLEPTELLMNRAYLQSITPQGYSDSEERESMPRDGESEKEHEKEGEEGYGKLRRRDGDEEEEEEEEESENKSMDTDPETIRDEEETGDHSMDDSSEDGKMETKSDHEEDNMEDGM
notes: range 1-1214; Produced in COS1 cells from pCDNA3; tested in total cell extract; also called FLAG-tagged SIP1FS; pCDNA3-SIP1 (Flag-tagged); not shown: FLAG tag at the N-terminus
B3: Myc-tagged full size SIP1 (SIP1FS) (other, mouse, UniProt Q9R0G7 1-1214, looked up)
chain: B2 chain
notes: range 1-1214; Produced in COS1 cells from pCS3; tested in total cell extract; also called Myc-tagged SIP1; WT SIP1; not shown: (Myc)6 tag of pCS3 at the N-terminus

How the values were obtained:
[1] = tested on: SIP1 full size in cells (mouse); assay: cell_activity; details: luciferase reporter; derepressed by E-box mutations
[2] = biological target: T1, GST-SIP1CZF; assay: EMSA; strong; details: tags: GST; label: 32P
Description: (§1) The DNA binding assay (20 μl) was performed at 25° C., with 1 μg of COS1 total cell protein, 1 pg of poly dI-dC, 10 pg of ³²P-labeled double-stranded oligonucleotide (approx. 10⁴ Cerenkov counts) in the δEF1 binding buffer described previously (30). For supershift experiments, the extracts were incubated with anti-Myc (Santa Cruz) or anti-FLAG (Kodak) antibodies. For competition, an excess of unlabeled double-stranded oligonucleotides was added together with the labeled probe. The binding reaction was loaded onto a 4% polyacrylamide gel (acrylamide/bis-acrylamide, 19:1) prepared in 0.5XTBE buffer. Following electrophoresis, gels were dried, and exposed to X-Ray film. All experiments were repeated at least three times.
(§2) The integrity of both SIP1 zinc finger clusters is necessary for the binding of SIP1FS to DNA: Mutations within NZF3, NZF4, CZF2, CZF3 abolish the DNA-binding activity of either the SIP1NZF or SIP1CZF zinc finger clusters. The wild type and mutated zinc finger clusters were fused to GST and the fusion proteins were produced in E. Coli. After purification, an equal amount of each fusion proteins (0.1 ng) was incubated with 10 pg of labeled Xbra-E probe. Mutations within NZF3, NZF4, CZF2 or CZF3 affect the binding of SIP1FS to the Xbra-WT probe. […]

[3] = biological target: T2, GST-SIP1NZF; assay: EMSA; strong; details: tags: GST; label: 32P
Description: as §1, §2

[4] = biological target: B3; assay: EMSA double supershift with anti-Myc and anti-FLAG antibodies, Xbra-WT probe
Description: as §1, with “For” for “The DNA binding assay (20 μl) was performed at 25° C., with 1 μg of COS1 total cell protein, 1 pg of poly dI-dC, 10 pg of ³²P-labeled double-stranded oligonucleotide (approx. 10⁴ Cerenkov counts) in the δEF1 binding buffer described previously (30). For”
To address this experimentally, we used a combination of differently tagged SIP1 in supershift experiments in EMSAs. […] The SIP1 complex generated with Myc-tagged SIP1 has a slightly slower migration than the FLAG-tagged complex (the Myc-tag is longer than the FLAG-tag). […] Using an anti-FLAG antibody, only the lower part of the complex corresponding to FLAG-tagged SIP1 is super-shifted, whereas about 50% of the radioactivity remains within the Myc-tagged SIP1 complex. […] Conversely, incubating the extract with an anti-Myc antibody super-shifted only the […] part of the complex corresponding to Myc-tagged SIP1 whereas 50% of the radioactivity is retained within the FLAG-tagged SIP1 complex. […] However, we detected no other super-shifted band corresponding to a potential double super-shift, viz. super-shifted with both anti-Myc- and anti-FLAG-antibodies.

[5] = biological target: B2; assay: immunoprecipitation with anti-Myc antibody, detection with anti-FLAG antibody
Description: Transfected cells were washed with PBS-O (137 mM NaCl, 2.7 mM KCl, 6.5 mM Na₂HPO₄, 1.5 mM KH₂PO₄), collected in detachment buffer (10 mM Tris pH7.5, 1 mM EDTA, 10% glycerol, with protease inhibitors (Protease inhibitor Cocktail tablets, Boehringer Mannheim)) and pelleted by low spin centrifugation. The cells were then solubilized in 10 mM Tris, pH 7.4, 125 mM NaCl, 1% Triton X-100. For direct electrophoretic analysis, gel sample buffer was added to the cell lysates and the samples were boiled. For other experiments, lysates were first subjected to immunoprecipitation with either anti-Myc or anti-FLAG antibodies. Antibodies were added to aliquots of the cell lysates, which were incubated overnight at 4° C. The antibodies and the bound protein(s) of the cell lysate were coupled as a complex to protein A-Sepharose for 2 hours at 4° C. The immunoprecipitates were washed 4 times in NET buffer (50 mM Tris pH 8.0, 150 mM NaCl, 0.1% NP40, 1 mM EDTA, 0.25% gelatin), resolved by SDS-polyacrylamide (7.5%) gel electrophoresis, and electrophoretically transferred to nitrocellulose membranes. […] Immunoreactive bands were detected with an enhanced chemiluminescence reagent (NEN). […]

Molecule: E-cadherin promoter reporter
- activity (% decrease of promoter activity) [1]: 80

Molecule: B1
- binding result [2]: binds
- binding result [3]: binds

Molecule: B2
- binding result [4]: no binding

Molecule: B3
- binding result [5]: no binding
